Assay results as given in PMC11286772, “Structural basis of antagonist selectivity in endothelin receptors” (Cell Discovery, 2024).

Molecular target: Fab301, Fab fragment of the anti-ETA monoclonal antibody Getagozumab
Assay: size exclusion chromatography
Conditions: chain shown with the change;; parent: est. 0 min; read off a plot

Fab301, Fab fragment of the anti-ETA monoclonal antibody Getagozumab, sequence (chain, as listed by the source, chain 1 of 2): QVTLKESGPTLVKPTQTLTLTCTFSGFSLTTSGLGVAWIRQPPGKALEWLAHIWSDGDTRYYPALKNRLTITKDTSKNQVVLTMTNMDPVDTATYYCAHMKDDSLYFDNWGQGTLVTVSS
Fab301, Fab fragment of the anti-ETA monoclonal antibody Getagozumab, sequence (chain, as listed by the source, chain 2 of 2): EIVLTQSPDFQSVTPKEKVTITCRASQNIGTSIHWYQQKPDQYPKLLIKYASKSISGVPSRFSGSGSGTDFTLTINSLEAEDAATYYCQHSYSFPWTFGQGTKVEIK

Binder	other: Δt (SEC retention time of mutant–Fab301 complex minus WT–Fab301 complex) [min]
ETA, wild type, as used in the size exclusion chromatography analysis with Fab301, P25101 E234A (protein) DNPERYSTNLSNHVDDFTTFRGTELSFLVTTHQPTNLVLPSNGSMHNYCPQQTKITSAFKYINTVISCTIFIVGMVGNATLLRIIYQNKCMRNGPNALIASLALGDLIYVVIDLPINVFKLLAGRWPFDHNDFGVFLCKLFPFLQKSSVGITVLNLCALSVDRYRAVASWSRVQGIGIPLVTAIEIVSIWILSFILAIPEAIGFVMVPFEYRGAQHKTCMLNATSKFMEFYQDVKDWWLFGFYFCMPLVCTAIFYTLMTCEMLNRRNGSLRIALSEHLKQRREVAKTVFCLVVIFALCWFPLHLSRILKKTVYNEMDKNRCELLSFLLLMDYIGINLATMNSCINPIALYFVSKKFKNCFQSCLCCCCYQSKSLMTSVPMNGTSIQWKNHDQNNHNTDRSSHKDSMN	0.019
ETA, wild type, as used in the size exclusion chromatography analysis with Fab301, P25101 Y231A (protein) DNPERYSTNLSNHVDDFTTFRGTELSFLVTTHQPTNLVLPSNGSMHNYCPQQTKITSAFKYINTVISCTIFIVGMVGNATLLRIIYQNKCMRNGPNALIASLALGDLIYVVIDLPINVFKLLAGRWPFDHNDFGVFLCKLFPFLQKSSVGITVLNLCALSVDRYRAVASWSRVQGIGIPLVTAIEIVSIWILSFILAIPEAIGFVMVPFEARGEQHKTCMLNATSKFMEFYQDVKDWWLFGFYFCMPLVCTAIFYTLMTCEMLNRRNGSLRIALSEHLKQRREVAKTVFCLVVIFALCWFPLHLSRILKKTVYNEMDKNRCELLSFLLLMDYIGINLATMNSCINPIALYFVSKKFKNCFQSCLCCCCYQSKSLMTSVPMNGTSIQWKNHDQNNHNTDRSSHKDSMN	0.039
ETA, wild type, as used in the size exclusion chromatography analysis with Fab301, P25101 G233A (protein) DNPERYSTNLSNHVDDFTTFRGTELSFLVTTHQPTNLVLPSNGSMHNYCPQQTKITSAFKYINTVISCTIFIVGMVGNATLLRIIYQNKCMRNGPNALIASLALGDLIYVVIDLPINVFKLLAGRWPFDHNDFGVFLCKLFPFLQKSSVGITVLNLCALSVDRYRAVASWSRVQGIGIPLVTAIEIVSIWILSFILAIPEAIGFVMVPFEYRAEQHKTCMLNATSKFMEFYQDVKDWWLFGFYFCMPLVCTAIFYTLMTCEMLNRRNGSLRIALSEHLKQRREVAKTVFCLVVIFALCWFPLHLSRILKKTVYNEMDKNRCELLSFLLLMDYIGINLATMNSCINPIALYFVSKKFKNCFQSCLCCCCYQSKSLMTSVPMNGTSIQWKNHDQNNHNTDRSSHKDSMN	0.056
ETA, wild type, as used in the size exclusion chromatography analysis with Fab301, P25101 F229A (protein) DNPERYSTNLSNHVDDFTTFRGTELSFLVTTHQPTNLVLPSNGSMHNYCPQQTKITSAFKYINTVISCTIFIVGMVGNATLLRIIYQNKCMRNGPNALIASLALGDLIYVVIDLPINVFKLLAGRWPFDHNDFGVFLCKLFPFLQKSSVGITVLNLCALSVDRYRAVASWSRVQGIGIPLVTAIEIVSIWILSFILAIPEAIGFVMVPAEYRGEQHKTCMLNATSKFMEFYQDVKDWWLFGFYFCMPLVCTAIFYTLMTCEMLNRRNGSLRIALSEHLKQRREVAKTVFCLVVIFALCWFPLHLSRILKKTVYNEMDKNRCELLSFLLLMDYIGINLATMNSCINPIALYFVSKKFKNCFQSCLCCCCYQSKSLMTSVPMNGTSIQWKNHDQNNHNTDRSSHKDSMN	-0.004
ETA, wild type, as used in the size exclusion chromatography analysis with Fab301, P25101 R232A (protein) DNPERYSTNLSNHVDDFTTFRGTELSFLVTTHQPTNLVLPSNGSMHNYCPQQTKITSAFKYINTVISCTIFIVGMVGNATLLRIIYQNKCMRNGPNALIASLALGDLIYVVIDLPINVFKLLAGRWPFDHNDFGVFLCKLFPFLQKSSVGITVLNLCALSVDRYRAVASWSRVQGIGIPLVTAIEIVSIWILSFILAIPEAIGFVMVPFEYAGEQHKTCMLNATSKFMEFYQDVKDWWLFGFYFCMPLVCTAIFYTLMTCEMLNRRNGSLRIALSEHLKQRREVAKTVFCLVVIFALCWFPLHLSRILKKTVYNEMDKNRCELLSFLLLMDYIGINLATMNSCINPIALYFVSKKFKNCFQSCLCCCCYQSKSLMTSVPMNGTSIQWKNHDQNNHNTDRSSHKDSMN	0.054
ETA, wild type, as used in the size exclusion chromatography analysis with Fab301, P25101 Q235A (protein) DNPERYSTNLSNHVDDFTTFRGTELSFLVTTHQPTNLVLPSNGSMHNYCPQQTKITSAFKYINTVISCTIFIVGMVGNATLLRIIYQNKCMRNGPNALIASLALGDLIYVVIDLPINVFKLLAGRWPFDHNDFGVFLCKLFPFLQKSSVGITVLNLCALSVDRYRAVASWSRVQGIGIPLVTAIEIVSIWILSFILAIPEAIGFVMVPFEYRGEAHKTCMLNATSKFMEFYQDVKDWWLFGFYFCMPLVCTAIFYTLMTCEMLNRRNGSLRIALSEHLKQRREVAKTVFCLVVIFALCWFPLHLSRILKKTVYNEMDKNRCELLSFLLLMDYIGINLATMNSCINPIALYFVSKKFKNCFQSCLCCCCYQSKSLMTSVPMNGTSIQWKNHDQNNHNTDRSSHKDSMN	0.023
ETA, wild type, as used in the size exclusion chromatography analysis with Fab301, P25101 E230A (protein) DNPERYSTNLSNHVDDFTTFRGTELSFLVTTHQPTNLVLPSNGSMHNYCPQQTKITSAFKYINTVISCTIFIVGMVGNATLLRIIYQNKCMRNGPNALIASLALGDLIYVVIDLPINVFKLLAGRWPFDHNDFGVFLCKLFPFLQKSSVGITVLNLCALSVDRYRAVASWSRVQGIGIPLVTAIEIVSIWILSFILAIPEAIGFVMVPFAYRGEQHKTCMLNATSKFMEFYQDVKDWWLFGFYFCMPLVCTAIFYTLMTCEMLNRRNGSLRIALSEHLKQRREVAKTVFCLVVIFALCWFPLHLSRILKKTVYNEMDKNRCELLSFLLLMDYIGINLATMNSCINPIALYFVSKKFKNCFQSCLCCCCYQSKSLMTSVPMNGTSIQWKNHDQNNHNTDRSSHKDSMN	0.026
